# Data taken from the supplement of paper PMC7877785.
# ± gives the uncertainty stated by the source.
# Assay: self-splicing fitness, log relative to wild type (ln ratio); higher = more splicing; Tetrahymena group I intron in knt gene, E. coli kanamycin selection, DiMSum; sequences stand for … in CUCUCU…GGAGGGAAAAGUUAUCAGGCAUGCACCUGGUAGCUAGUCUUUAAACCAAUAGAUUGCAUCGGUUUAAAAGGCAAGACCGUCAAAUUGCGGGAAAGGGGUCAACAGCCGUUCAGUACCAAGUCUCAGGGGAAACUUUGAGAUGGCCUUGCAAAGGGUAUGGUAAUAAGCUGACGGACAUGGUCCUAACCACGCAGCCAAGUCCUAAGUCAACAGAUCUUCUGUUGAUAUGGAUGCAGUUCACAGACUAAAUGUCGGUCGGGGAAGAUGUAUUCUUCUCAUAAGAUAUAGUCGGACCUCUCCUUAAUGGGAGCUAGCGGAUGAAGUGAUGCAACACUGGAGCCGCUGGGAACUAAUUUGUAUGCGAAAGUAUAUUGAUUAGUUUUGGAGUACUCGUGGUCG
# How it was run: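 The eight P1ex-region nucleotides of an intron in the knt kanamycin-resistance gene on pET-22b(+) were all randomised and the library put into E. coli BL21(DE3). Six replicate transformations were grown overnight at 37°C or 30°C on LB agar with or without 25 μg/mL kanamycin, together with 100 μg/mL carbenicillin, 50 μM IPTG and 0.2% rhamnose. Colonies were pooled and amplicon-sequenced on an Illumina HiSeq 2500. Fitness from DiMSum is the error-weighted combination of wild-type-normalised replicate fold changes, kanamycin over none.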
Sequence,self-splicing fitness (ln) (30 °C),self-splicing fitness (ln) (37 °C)
CAAAAGCAAUAUUACGACGG,0.122 ± 0.076,-0.14 ± 0.09
CAAAAGCAAUAUUACGACUC,-1.44 ± 0.11,-0.245 ± 0.13
CAAAAGCAAUAUUACGCACC,-2.48 ± 0.31,-0.0893 ± 0.26
CAAAAGCAAUAUUACGCAUA,-3.58 ± 0.17,-1.77 ± 0.12
CAAAAGCAAUAUUACGCCGA,-2.91 ± 0.23,-2.49 ± 0.25
CAAAAGCAAUAUUACGCGCA,-1.05 ± 0.1,-0.548 ± 0.1
CAAAAGCAAUAUUACGCUAC,-3.82 ± 0.26,-2.59 ± 0.25
CAAAAGCAAUAUUACGCUCG,-1.25 ± 0.12,-0.455 ± 0.12
CAAAAGCAAUAUUACGGAAU,-3.21 ± 0.21,-2.56 ± 0.17
CAAAAGCAAUAUUACGGAUC,-3.73 ± 0.22,-1.98 ± 0.16
CAAAAGCAAUAUUACGGGGG,-3.13 ± 0.18,-2.38 ± 0.15
CAAAAGCAAUAUUACGGGUC,-3.11 ± 0.094,-2.51 ± 0.12
CAAAAGCAAUAUUACGGUUC,-3.56 ± 0.22,-1.83 ± 0.18
CAAAAGCAAUAUUACGUCGC,-4.14 ± 0.28,-2.35 ± 0.25
CAAAAGCAAUAUUACGUCGG,-0.932 ± 0.073,-0.25 ± 0.1
CAAAAGCAAUAUUACGUCUU,-2.5 ± 0.082,-1.24 ± 0.08
CAAAAGCAAUAUUACGUGAC,-5 ± 0.36,-2.47 ± 0.18
CAACAGCAAUAUUACGACAU,-2.026 ± 0.012,-1.04 ± 0.032
CAACAGCAAUAUUACGAGAC,-2.57 ± 0.11,-2.22 ± 0.14
CAACAGCAAUAUUACGAGGC,-3.79 ± 0.36,-1.77 ± 0.18
CAACAGCAAUAUUACGAGUG,-1.59 ± 0.051,-0.292 ± 0.071
CAACAGCAAUAUUACGAGUU,-2.6 ± 0.096,-2.09 ± 0.13
CAACAGCAAUAUUACGAUUA,-0.522 ± 0.082,-0.185 ± 0.082
CAACAGCAAUAUUACGCACU,-2.34 ± 0.14,-0.357 ± 0.12

Sequence,self-splicing fitness (ln) (30 °C),self-splicing fitness (ln) (37 °C)
CAACAGCAAUAUUACGCAUA,-2.7 ± 0.12,-1.4 ± 0.098
CAACAGCAAUAUUACGCAUG,-2.41 ± 0.11,-1.27 ± 0.14
CAACAGCAAUAUUACGCGGG,-2.63 ± 0.14,-2.12 ± 0.14
CAACAGCAAUAUUACGGCGA,-1.5 ± 0.094,-0.709 ± 0.087
CAACAGCAAUAUUACGGGCG,-0.0253 ± 0.049,0.154 ± 0.062
CAACAGCAAUAUUACGGUGG,-2.15 ± 0.083,-0.724 ± 0.082
CAACAGCAAUAUUACGUCGG,-0.576 ± 0.052,-0.369 ± 0.065
CAACAGCAAUAUUACGUUCA,-1.06 ± 0.051,0.193 ± 0.061
CAACAGCAAUAUUACGUUCC,-2.46 ± 0.096,-2.02 ± 0.12
CAACAGCAAUAUUACGUUCG,-0.959 ± 0.051,-0.171 ± 0.065
CAAGAGCAAUAUUACGACAU,-3.534 ± 0.024,-2.85 ± 0.041
CAAGAGCAAUAUUACGACGU,-2.88 ± 0.23,
CAAGAGCAAUAUUACGAUAC,-2.8 ± 0.34,
CAAGAGCAAUAUUACGAUUU,-3.11 ± 0.2,-2.45 ± 0.16
CAAGAGCAAUAUUACGCAGA,-3.45 ± 0.19,-2.12 ± 0.16
CAAGAGCAAUAUUACGCGCA,-3.48 ± 0.37,-2.09 ± 0.25
CAAGAGCAAUAUUACGGCAC,-4.28 ± 0.24,-2.53 ± 0.18
CAAGAGCAAUAUUACGGCGA,-3.9 ± 0.28,-3.24 ± 0.18
CAAGAGCAAUAUUACGGCUG,-0.309 ± 0.098,-0.473 ± 0.16
CAAGAGCAAUAUUACGGGUG,-1.74 ± 0.078,-1.17 ± 0.1
CAAGAGCAAUAUUACGGUAA,-3.24 ± 0.23,-2.14 ± 0.21
CAAGAGCAAUAUUACGGUAU,-4.27 ± 0.22,-2.63 ± 0.21
CAAGAGCAAUAUUACGGUGC,-3.03 ± 0.31,-2.09 ± 0.35
CAAGAGCAAUAUUACGGUUC,-3.57 ± 0.24,-2.34 ± 0.25

Sequence,self-splicing fitness (ln) (30 °C),self-splicing fitness (ln) (37 °C)
CAAGAGCAAUAUUACGUAAA,-4.16 ± 0.29,-3.01 ± 0.26
CAAGAGCAAUAUUACGUCAC,-3.05 ± 0.21,-2.75 ± 0.23
CAAGAGCAAUAUUACGUCGA,-3.3 ± 0.21,-2.2 ± 0.24
CAAGAGCAAUAUUACGUGAC,,-3.01 ± 0.18
CAAGAGCAAUAUUACGUGCA,-2.97 ± 0.21,-3.06 ± 0.43
CAAGAGCAAUAUUACGUUAA,-3.49 ± 0.35,-2.33 ± 0.22
CAAGAGCAAUAUUACGUUGG,-2.67 ± 0.13,-1.78 ± 0.12
CAAUAGCAAUAUUACGAAGU,-3.76 ± 0.15,-2.64 ± 0.15
CAAUAGCAAUAUUACGAGCA,-2.05 ± 0.34,-0.415 ± 0.3
CAAUAGCAAUAUUACGAGCG,-0.254 ± 0.077,0.281 ± 0.098
CAAUAGCAAUAUUACGAGUC,-4.09 ± 0.34,-2.75 ± 0.28
CAAUAGCAAUAUUACGCAAC,-3.75 ± 0.34,-1.91 ± 0.39
CAAUAGCAAUAUUACGCAAU,-3.23 ± 0.34,-2.09 ± 0.28
CAAUAGCAAUAUUACGCCCG,-0.472 ± 0.17,-0.0129 ± 0.23
CAAUAGCAAUAUUACGCGCA,-2.68 ± 0.19,-1.7 ± 0.18
CAAUAGCAAUAUUACGCGCU,-3.61 ± 0.18,-2.18 ± 0.18
CAAUAGCAAUAUUACGCGGC,-3.91 ± 0.37,
CAAUAGCAAUAUUACGCGUA,-2.09 ± 0.18,-1.85 ± 0.23
CAAUAGCAAUAUUACGCGUU,-2.98 ± 0.09,-2.42 ± 0.1
CAAUAGCAAUAUUACGGAGC,-2.48 ± 0.22,-2.53 ± 0.45
CAAUAGCAAUAUUACGGAUC,-3.15 ± 0.37,
CAAUAGCAAUAUUACGGGCA,-2.46 ± 0.28,-2.89 ± 0.25
CAAUAGCAAUAUUACGGUGC,-3.75 ± 0.23,-3.67 ± 0.29
CAAUAGCAAUAUUACGUAAA,-2.68 ± 0.28,-2.27 ± 0.4

Sequence,self-splicing fitness (ln) (30 °C),self-splicing fitness (ln) (37 °C)
CAAUAGCAAUAUUACGUACG,-0.451 ± 0.063,-0.069 ± 0.078
CAAUAGCAAUAUUACGUCAC,-2.04 ± 0.2,-2.71 ± 0.43
CAAUAGCAAUAUUACGUGAC,-3.84 ± 0.25,-2.21 ± 0.22
CAAUAGCAAUAUUACGUGCA,-2.72 ± 0.19,-1.27 ± 0.15
CAAUAGCAAUAUUACGUGUC,-3.97 ± 0.18,-3.28 ± 0.21
CAAUAGCAAUAUUACGUUAA,-2.95 ± 0.18,-2.8 ± 0.23
CACAAGCAAUAUUACGAGAC,-3.08 ± 0.17,-2.51 ± 0.17
CACAAGCAAUAUUACGAGAG,-3.2 ± 0.12,-1.32 ± 0.085
CACAAGCAAUAUUACGAUAA,-4.26 ± 0.33,-2.22 ± 0.16
CACAAGCAAUAUUACGAUCA,-2.43 ± 0.11,-1.55 ± 0.12
CACAAGCAAUAUUACGCAAA,-3.29 ± 0.23,-2.46 ± 0.28
CACAAGCAAUAUUACGCACG,-0.378 ± 0.067,-0.684 ± 0.075
CACAAGCAAUAUUACGCGGC,-3.25 ± 0.19,-2.98 ± 0.23
CACAAGCAAUAUUACGCGGG,-3 ± 0.14,-0.984 ± 0.12
CACAAGCAAUAUUACGCUUG,-3.66 ± 0.18,-1.77 ± 0.15
CACAAGCAAUAUUACGGAAU,-4.1 ± 0.21,-2.28 ± 0.16
CACAAGCAAUAUUACGGCCC,-2.49 ± 0.22,-1.82 ± 0.31
CACAAGCAAUAUUACGGCUA,-2.02 ± 0.12,-1.26 ± 0.11
CACAAGCAAUAUUACGGGAG,-1.55 ± 0.065,-1.46 ± 0.076
CACAAGCAAUAUUACGGUCG,0.139 ± 0.054,0.219 ± 0.064
CACAAGCAAUAUUACGGUCU,-2.76 ± 0.1,-1.99 ± 0.12
CACAAGCAAUAUUACGUACA,-3.03 ± 0.1,-1.46 ± 0.1
CACAAGCAAUAUUACGUAGC,-4 ± 0.12,-2.59 ± 0.13
CACAAGCAAUAUUACGUAUC,-4.88 ± 0.25,-2.19 ± 0.15
